This note sets out measurements from patent US20160200782A1 (MOERAE MATRIX, published 2016).

Targets include MAPK2(h) (human, UniProt P28482 1-360); DAPK2(h) (human, UniProt Q9UIK4 1-370, limits assumed); JNK3(h) (human, UniProt P53779 1-464, limits assumed); Pim-2(h) (human, UniProt Q9P1W9 1-311); PDGFRα(V561D)(h) (human, UniProt P16234 550-1089, limits assumed); ZIPK(h) (human, UniProt O43293 1-454, limits assumed); Hck(h) (human, UniProt P08631 251-518, limits assumed); CaMKI(h) (human, UniProt Q14012 1-370, limits assumed); PKBβ(h) (human, UniProt P31751 1-481, limits assumed); GSK3α(h) (human, UniProt P49840 1-483); HIPK2(h) (human, UniProt Q9H2X6 165-564, limits assumed).

What all share (experiment): cell-based or functional assay
For another test, the target named is T1, SGK3(h) (human, UniProt Q96BR1 1-496, limits assumed).
T1 sequence (looked up): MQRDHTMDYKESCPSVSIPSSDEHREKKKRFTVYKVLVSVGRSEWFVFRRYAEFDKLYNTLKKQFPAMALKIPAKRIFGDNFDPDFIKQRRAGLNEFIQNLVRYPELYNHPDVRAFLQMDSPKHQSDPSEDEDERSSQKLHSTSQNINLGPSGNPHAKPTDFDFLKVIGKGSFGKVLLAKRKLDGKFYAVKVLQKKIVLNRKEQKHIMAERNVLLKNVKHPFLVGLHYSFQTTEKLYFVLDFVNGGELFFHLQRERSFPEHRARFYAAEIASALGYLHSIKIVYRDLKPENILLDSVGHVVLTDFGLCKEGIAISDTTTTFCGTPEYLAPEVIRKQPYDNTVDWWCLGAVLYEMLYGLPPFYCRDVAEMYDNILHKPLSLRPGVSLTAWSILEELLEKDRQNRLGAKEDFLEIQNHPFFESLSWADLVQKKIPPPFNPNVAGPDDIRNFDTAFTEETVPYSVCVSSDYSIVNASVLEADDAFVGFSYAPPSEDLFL

Another test has as its target T2, Txk(h) (human, UniProt P42681 1-527, limits assumed).
T2 sequence (looked up): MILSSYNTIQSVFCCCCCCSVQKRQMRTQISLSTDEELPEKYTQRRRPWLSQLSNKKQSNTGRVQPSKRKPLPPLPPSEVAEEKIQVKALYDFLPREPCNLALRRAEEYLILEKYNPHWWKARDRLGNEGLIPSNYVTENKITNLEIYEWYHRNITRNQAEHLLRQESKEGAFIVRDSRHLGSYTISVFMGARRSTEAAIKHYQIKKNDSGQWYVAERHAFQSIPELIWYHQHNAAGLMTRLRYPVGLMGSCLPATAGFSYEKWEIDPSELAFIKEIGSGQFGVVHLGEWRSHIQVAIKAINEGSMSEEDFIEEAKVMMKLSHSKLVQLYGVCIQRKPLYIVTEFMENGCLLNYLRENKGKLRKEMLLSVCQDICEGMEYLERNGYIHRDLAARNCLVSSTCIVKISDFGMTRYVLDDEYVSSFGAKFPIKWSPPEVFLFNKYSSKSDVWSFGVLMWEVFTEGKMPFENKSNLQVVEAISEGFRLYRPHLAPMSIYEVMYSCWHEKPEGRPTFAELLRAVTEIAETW

A further test addresses T3, MuSK(h) (human, UniProt O15146 517-869, limits assumed).
T3 sequence (looked up): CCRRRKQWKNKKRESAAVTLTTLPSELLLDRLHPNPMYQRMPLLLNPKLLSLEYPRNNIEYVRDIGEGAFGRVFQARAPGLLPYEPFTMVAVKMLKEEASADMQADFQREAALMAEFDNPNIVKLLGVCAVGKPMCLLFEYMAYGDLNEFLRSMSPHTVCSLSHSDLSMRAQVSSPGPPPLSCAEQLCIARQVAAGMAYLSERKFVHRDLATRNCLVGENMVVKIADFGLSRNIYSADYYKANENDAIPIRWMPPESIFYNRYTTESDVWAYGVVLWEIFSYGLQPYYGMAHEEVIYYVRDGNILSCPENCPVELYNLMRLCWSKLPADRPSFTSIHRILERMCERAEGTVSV

For another test, the target named is T4, TBK1(h) (human, UniProt Q9UHD2 1-729, limits assumed).
T4 sequence (looked up): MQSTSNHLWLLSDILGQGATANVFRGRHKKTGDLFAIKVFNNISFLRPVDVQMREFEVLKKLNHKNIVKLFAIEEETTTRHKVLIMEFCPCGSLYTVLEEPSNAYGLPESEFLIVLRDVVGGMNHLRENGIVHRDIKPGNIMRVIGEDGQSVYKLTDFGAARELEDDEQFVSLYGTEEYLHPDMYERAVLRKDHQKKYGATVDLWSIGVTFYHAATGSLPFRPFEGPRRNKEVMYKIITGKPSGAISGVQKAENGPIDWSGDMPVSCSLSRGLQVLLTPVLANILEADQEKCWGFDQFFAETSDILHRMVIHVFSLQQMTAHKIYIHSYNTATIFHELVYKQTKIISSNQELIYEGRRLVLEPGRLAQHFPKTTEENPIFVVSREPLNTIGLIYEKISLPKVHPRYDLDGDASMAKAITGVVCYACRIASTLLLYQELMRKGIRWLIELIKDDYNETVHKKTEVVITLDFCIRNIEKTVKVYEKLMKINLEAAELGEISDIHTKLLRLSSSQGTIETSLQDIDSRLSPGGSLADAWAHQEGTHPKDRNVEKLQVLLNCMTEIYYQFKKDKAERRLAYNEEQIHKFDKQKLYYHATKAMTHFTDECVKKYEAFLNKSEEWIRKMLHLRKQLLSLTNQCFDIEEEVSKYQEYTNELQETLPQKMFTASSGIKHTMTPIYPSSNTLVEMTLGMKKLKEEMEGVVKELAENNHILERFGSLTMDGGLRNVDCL

Sequence of JNK3(h) (P53779 whole entry): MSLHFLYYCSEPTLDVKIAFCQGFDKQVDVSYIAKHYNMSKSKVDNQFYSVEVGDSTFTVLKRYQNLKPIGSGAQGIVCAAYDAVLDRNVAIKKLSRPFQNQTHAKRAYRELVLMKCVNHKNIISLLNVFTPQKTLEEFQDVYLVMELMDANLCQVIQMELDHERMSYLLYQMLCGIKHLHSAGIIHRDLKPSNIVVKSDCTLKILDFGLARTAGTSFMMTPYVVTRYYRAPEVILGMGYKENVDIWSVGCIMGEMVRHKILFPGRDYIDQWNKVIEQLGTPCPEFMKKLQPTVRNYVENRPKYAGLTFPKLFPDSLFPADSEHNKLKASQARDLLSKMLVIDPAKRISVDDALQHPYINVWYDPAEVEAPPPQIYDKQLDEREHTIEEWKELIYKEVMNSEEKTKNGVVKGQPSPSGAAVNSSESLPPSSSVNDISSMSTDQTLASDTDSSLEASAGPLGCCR
Sequence of PKBβ(h) (P31751 whole entry): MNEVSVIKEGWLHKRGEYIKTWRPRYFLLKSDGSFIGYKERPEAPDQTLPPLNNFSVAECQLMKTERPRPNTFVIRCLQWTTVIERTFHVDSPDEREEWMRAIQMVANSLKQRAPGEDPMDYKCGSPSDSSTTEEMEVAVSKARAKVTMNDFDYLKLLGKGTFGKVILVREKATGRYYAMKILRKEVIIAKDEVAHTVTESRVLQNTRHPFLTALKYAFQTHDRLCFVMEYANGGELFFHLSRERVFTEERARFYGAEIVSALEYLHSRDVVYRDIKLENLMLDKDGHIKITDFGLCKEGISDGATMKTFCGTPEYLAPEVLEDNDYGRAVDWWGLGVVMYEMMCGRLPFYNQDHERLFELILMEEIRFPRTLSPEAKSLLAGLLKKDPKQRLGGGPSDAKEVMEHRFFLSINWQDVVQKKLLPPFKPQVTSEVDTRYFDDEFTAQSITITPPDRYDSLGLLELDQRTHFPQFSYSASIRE
Sequence of CaMKI(h) (Q14012 whole entry): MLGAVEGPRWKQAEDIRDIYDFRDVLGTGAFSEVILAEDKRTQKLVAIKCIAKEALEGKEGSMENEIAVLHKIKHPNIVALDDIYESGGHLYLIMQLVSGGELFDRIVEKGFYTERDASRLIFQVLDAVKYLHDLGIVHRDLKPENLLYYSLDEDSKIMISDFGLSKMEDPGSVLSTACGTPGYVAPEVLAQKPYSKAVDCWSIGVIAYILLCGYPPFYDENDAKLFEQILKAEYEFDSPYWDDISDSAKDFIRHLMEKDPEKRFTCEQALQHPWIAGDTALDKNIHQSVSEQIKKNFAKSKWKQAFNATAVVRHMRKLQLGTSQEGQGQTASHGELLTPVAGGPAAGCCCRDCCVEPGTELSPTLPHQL
Sequence of DAPK2(h) (Q9UIK4 whole entry): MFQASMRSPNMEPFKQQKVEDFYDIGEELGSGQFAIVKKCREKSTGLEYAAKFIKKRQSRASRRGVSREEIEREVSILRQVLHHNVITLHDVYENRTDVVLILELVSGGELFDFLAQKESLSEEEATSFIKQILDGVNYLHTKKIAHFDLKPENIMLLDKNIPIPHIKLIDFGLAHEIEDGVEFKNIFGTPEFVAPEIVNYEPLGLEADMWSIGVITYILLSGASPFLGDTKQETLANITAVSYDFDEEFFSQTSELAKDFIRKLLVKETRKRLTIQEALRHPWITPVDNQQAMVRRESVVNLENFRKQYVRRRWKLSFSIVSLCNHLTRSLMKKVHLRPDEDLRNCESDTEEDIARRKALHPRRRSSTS
Sequence of MAPK2(h) (P28482 whole entry): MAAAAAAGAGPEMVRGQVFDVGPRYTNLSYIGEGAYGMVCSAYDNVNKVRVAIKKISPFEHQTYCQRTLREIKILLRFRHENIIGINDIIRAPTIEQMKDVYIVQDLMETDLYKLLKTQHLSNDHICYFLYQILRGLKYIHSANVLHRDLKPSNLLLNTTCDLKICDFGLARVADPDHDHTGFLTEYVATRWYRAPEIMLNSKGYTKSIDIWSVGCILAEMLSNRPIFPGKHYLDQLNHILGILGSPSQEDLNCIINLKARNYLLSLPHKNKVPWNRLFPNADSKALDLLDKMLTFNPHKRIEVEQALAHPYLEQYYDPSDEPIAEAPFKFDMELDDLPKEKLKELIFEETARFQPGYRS
Sequence of PDGFRα(V561D)(h) (P16234 550-1089 V561D limits assumed): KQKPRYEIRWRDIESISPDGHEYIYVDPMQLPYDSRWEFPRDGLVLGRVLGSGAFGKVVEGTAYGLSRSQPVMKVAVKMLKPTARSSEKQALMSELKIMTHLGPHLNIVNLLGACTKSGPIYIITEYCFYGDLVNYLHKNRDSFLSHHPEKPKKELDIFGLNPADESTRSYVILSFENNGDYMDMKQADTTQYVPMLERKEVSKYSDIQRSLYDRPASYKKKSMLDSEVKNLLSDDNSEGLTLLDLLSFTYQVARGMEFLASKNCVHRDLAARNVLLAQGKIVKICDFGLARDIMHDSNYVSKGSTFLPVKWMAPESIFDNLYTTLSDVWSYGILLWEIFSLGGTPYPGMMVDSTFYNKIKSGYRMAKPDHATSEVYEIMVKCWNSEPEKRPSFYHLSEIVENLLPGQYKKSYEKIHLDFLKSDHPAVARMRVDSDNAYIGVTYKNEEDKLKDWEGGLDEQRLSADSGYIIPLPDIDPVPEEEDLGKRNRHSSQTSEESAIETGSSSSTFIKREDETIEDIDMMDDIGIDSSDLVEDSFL
Sequence of GSK3α(h) (P49840 whole entry): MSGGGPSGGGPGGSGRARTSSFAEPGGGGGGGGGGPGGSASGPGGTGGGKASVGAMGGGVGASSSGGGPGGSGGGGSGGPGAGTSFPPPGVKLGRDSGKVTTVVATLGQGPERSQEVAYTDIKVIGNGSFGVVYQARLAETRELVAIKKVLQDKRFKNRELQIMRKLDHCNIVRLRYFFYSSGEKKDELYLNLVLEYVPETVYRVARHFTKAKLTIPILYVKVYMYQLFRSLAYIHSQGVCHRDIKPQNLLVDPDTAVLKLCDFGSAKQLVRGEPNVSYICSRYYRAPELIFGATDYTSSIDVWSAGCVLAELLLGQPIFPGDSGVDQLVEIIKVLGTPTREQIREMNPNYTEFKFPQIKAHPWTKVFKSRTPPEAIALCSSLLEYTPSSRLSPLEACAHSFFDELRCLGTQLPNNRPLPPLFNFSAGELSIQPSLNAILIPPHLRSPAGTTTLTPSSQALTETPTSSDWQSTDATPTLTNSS
Sequence of ZIPK(h) (O43293 whole entry): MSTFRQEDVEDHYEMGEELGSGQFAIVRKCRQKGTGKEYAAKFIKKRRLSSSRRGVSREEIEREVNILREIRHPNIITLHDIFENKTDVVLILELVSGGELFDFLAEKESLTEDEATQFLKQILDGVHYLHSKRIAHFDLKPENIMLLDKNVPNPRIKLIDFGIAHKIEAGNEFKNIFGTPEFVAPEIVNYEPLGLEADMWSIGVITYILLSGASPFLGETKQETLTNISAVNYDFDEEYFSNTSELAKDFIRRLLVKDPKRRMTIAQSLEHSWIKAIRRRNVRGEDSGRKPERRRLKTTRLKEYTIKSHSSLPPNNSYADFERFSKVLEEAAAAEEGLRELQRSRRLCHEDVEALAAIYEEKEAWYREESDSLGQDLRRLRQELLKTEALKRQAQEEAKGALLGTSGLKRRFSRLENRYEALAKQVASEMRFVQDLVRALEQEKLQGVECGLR
Sequence of Hck(h) (P08631 251-518 limits assumed): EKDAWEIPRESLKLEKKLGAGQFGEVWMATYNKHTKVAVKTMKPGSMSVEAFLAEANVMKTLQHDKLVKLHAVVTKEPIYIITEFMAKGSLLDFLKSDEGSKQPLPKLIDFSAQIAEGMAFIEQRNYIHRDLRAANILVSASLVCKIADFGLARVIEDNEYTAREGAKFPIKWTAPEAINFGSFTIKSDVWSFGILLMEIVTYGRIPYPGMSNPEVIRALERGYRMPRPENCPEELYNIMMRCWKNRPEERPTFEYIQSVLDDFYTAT
Sequence of Pim-2(h) (Q9P1W9 whole entry): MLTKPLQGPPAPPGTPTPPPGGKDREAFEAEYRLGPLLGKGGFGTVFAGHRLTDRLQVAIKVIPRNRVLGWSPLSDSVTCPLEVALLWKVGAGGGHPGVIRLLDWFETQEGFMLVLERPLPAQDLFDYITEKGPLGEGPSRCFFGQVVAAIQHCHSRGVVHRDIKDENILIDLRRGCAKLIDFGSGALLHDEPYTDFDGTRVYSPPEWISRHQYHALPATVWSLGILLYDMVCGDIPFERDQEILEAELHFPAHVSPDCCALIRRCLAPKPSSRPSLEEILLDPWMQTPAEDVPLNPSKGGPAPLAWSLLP
Sequence of HIPK2(h) (Q9H2X6 165-564 limits assumed): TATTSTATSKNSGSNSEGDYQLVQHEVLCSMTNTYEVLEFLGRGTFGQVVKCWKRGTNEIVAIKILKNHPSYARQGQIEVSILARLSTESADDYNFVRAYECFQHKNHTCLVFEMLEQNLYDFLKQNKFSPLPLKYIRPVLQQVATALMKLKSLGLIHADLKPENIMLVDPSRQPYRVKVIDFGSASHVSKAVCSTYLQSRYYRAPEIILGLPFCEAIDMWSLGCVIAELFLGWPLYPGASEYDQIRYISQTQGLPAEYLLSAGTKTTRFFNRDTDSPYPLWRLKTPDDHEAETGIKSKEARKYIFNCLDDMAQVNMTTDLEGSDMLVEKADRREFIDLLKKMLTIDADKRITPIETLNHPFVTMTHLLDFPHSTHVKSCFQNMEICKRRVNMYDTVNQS

As to FAKLAARLYRKALARQLGVAA [MMI-0300], the “% activity” value with MAPK2(h) was found to be 98%; with SGK3(h), 10%; in the test with DAPK2(h), 32%; with JNK3(h) it was 89%; in the test with Pim-2(h) it was 76%; in the test with PDGFRα(V561D)(h), 82%. The “% activity” value came to 28% with ZIPK(h); 72% with Hck(h); 1% with CaMKI(h); 84% in the test with PKBβ(h); 157% with GSK3α(h); 48% with Txk(h). Further, the entries for the “% activity” value with HIPK2(h), with MuSK(h) and with TBK1(h) were 73%, 93% and 37%, respectively.
As to KAFAKLAARLYRKALARQLGVAA [MMI-0400], the “% activity” value in the test with MAPK2(h) was determined as 93%; with SGK3(h), 8%; in the test with DAPK2(h), 16%; in the test with JNK3(h), 70%; with Pim-2(h), 92%; with PDGFRα(V561D)(h), 100%. For the same molecule, the “% activity” value with ZIPK(h) came to 13%; with Hck(h), 72%; with CaMKI(h), 0%; with PKBβ(h), 98%; in the test with GSK3α(h) it was 164%; in the test with Txk(h) it was 37%. Moreover, the “% activity” value with HIPK2(h) came to 90%; with MuSK(h) it was 93%; in the test with TBK1(h) it was 39%.
